Measured values from a protein production outcome set (Wang et al. 2014).

assay: label from the status in PepcDB records
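Further: failed if final PepcDB status was selected cloned or expressed and not failed if soluble or beyond.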

Q: Which protein production does the source give for “MGGEDDELKGLLGLPEEETELDNLTEFNTAHNKRISTLTIEEGNLDIQRPKRKRKNSRVTFSEDDEIINPEDVDPSVGRFRNMVQTAVVPVKKKRVEGPGSLGLEESGSRRMQNFAFSGGLYGGLPPTHSEAGSQPHGIHGTALIGGLPMPYPNLAPDVDLTPVVPSAVNMNPAPNPAVYNPEAVNEPKKKKYAKEAWPGKKPTPSLLI” here?
A: not failed

Q: With “MGGFRFHQYQVVGRALPTENDEHPKIYRMKLWGRNEVCAKSKFWYFMRKLKKVKKSNGQMLAINEIFEKNPTTIKNYGIWLRYQSRTGYHNMYKEYRDTTLNGGVEQMYTEMASRHRVRFPCIQIIKTATVPAKLCKREITKQFHNSKIKFPLVFRKVRPPSRKLKTTYKASKPNLFM” as the sequence, how does the protein production read?
A: failed

Q: For “MGGLFVTPAKAVKTTNYAEEIAALQPGTTPEEIMKSASQIAKQQHVKQDVILKQFYKEITADKAEGDRLAKESGMSIMGGSSGTKKLPTSAKGNIYYTNSYTAYYNHGHVGMYSAADKIVESVPSDGVRQIAYNARDVEDNSIVQTVSVSSSQKTAAADWAVSKVGDPYSFNFVNNRNTGHDGAKNCSKLLWSAFLLKAGIDIDSNGGLGVYPRDITSSSYTTTIMTIYLEHHHHHH”, which protein production is on record?
A: failed

Q: Which protein production does the source give for “MGHHHHHHENLYFQSHERLSEKKIKNLLTSKQQRQQYEIKQRSMLRHLAELRRHSRFRRLCTKPASSSMPASTSSVDRRTTRRSTSQTSLSPSNSSGYGSVFGCEEHDVDKIPSLNGFAKLKRRRSSCVGAPTPNSKRSKNNMGVIAKRPPKGEYVVERIECVEMD” here?
A: failed

Q: Which protein production does the source give for “MGHHHHHHENLYFQSHINEQEREIEKLKRQMAEYGAIIKSLQFRQNSLEDTFIPDLTPKVEPSVNPTGCLLGSNAVHLMRDIKKECDYLGIPDPVPATKPTTQAQDDSQKKAKRSCFGRLFTGPFRRGTSAMKTADEYEKDDRLEELYAQLERDPDP” here?
A: failed

Q: With “MGHHHHHHSHCDSDCLWVGLAGPQILPPCRSIVRTLHQHKLGRASWPSVQQGLQQSFLHTLDSYRILQKAAPFDRRATSLAWHPTHPSTVAVGSKGGDIMLWNFGIKDKPTFIKGIGAGGSITGLKFNPLNTNQFYASSMEGTTRLQDFKGNILRVFASSDTINIWFCSLDVSASSRMVVTGDNVGNVILLNMDGKELWNLRMHKKKVTHVALNPCCDWFLATASVDQTVKIWDLRQVRGKASFLYSLPHRHPVNAACFSPDGARLLTTDQKSEIRVYSASQWDCPLGLIPHPHRHFQHLTPIKAAWHPRYNLIVVGRYPDPNFKSCTPYELRTIDVFDGNSGKMMCQLYDPESSGISSLNEFNPMGDTLASAMGYHILIWSQEEARTRK” as the sequence, how does the protein production read?
A: failed

Q: Which protein production does the source give for “MGHHHHHHSHGHAAVIGWKDLAYAGVIDSGGVCENIIAIPNPGTEPLNVAAVLCEGLDVVVYKGPEISLSPTRARPLLGKLRQGTAALVMVGTKVSSPALSVDAEITDYVGIGAGSGRIRGVEMQVRAVSKTHGVRSGKVLISRP” here?
A: failed

Q: For “MGHHHHHHSHGQLVRGKVCEYSTDGAYIDIGGKAPAFLPKREAALHAVLDLEAHLPKDEELEFLVIRDQNEDGQVTVSLRA”, which protein production is on record?
A: failed

Q: With “MGHHHHHHSHGSYANEISSSIIINRPAERLFDLWRKPETLPILMGHFASIEILNHTDSNWRINTPIGSLIEWQARIIDEKPGEYIHWRSLEGARVPNEGRLSFQPAASEAGTAVTLTIRYNPPGGLIGKKIGQMFDMFSRDMLTKTLYRFKKLAEDER” as the sequence, how does the protein production read?
A: not failed

Q: Which protein production does the source give for “MGHHHHHHSHMALRDLCVVLLNGQHLEVKCDVESTVGAVFNAVTSFANLEELTYFGLAYMKSKEFFFLDSETR” here?
A: failed

Q: With “MGHHHHHHSHMATSRYEPVAEIGVGAYGTVYKARDPHSGHFVALKSVRVPNGGGGGGGLPISTVREVALLRRLEAFEHPNVVRLMDVCATSRTDREIKVTLVFEHVDQDLRTYLDKAPPPGLPAETIKDLMRQFLRGLDFLHANCIVHRDLKPENILVTSGGTVKLADFGLARIYSYQMALTPVVVTLWYRAPEVLLQSTYATPVDMWSVGCIFAEMFRRKPLFCGNSEADQLGKIFDLIGLPPEDDWPRDVSLPRGAFPPRGPRPVQSVVPEMEESGAQLLLEMLTFNPHKRISAFRALQHSYLHK” as the sequence, how does the protein production read?
A: failed

Q: With “MGHHHHHHSHMEFIVDSVDKTMHIGRQLGSLVNKGDILCLTGDLGTGKTHISKGIAEGLGIDEHITSPTFNIVNEYHSGRLTLYHFDVYRVNDPDEIEAIGFDEYIFGDGVSLIEWANYIEELIPEEYIHIKIEKLPDMGENFRKITINGYGDRYNYIKEIKE” as the sequence, how does the protein production read?
A: failed

Q: Which protein production does the source give for “MGHHHHHHSHMFASCHCVPRGRRTMKMIHFRSSSVKSLSQEMRCTIRLLDDSEISCHIQRETKGQFLIDHICNYYSLLEKDYFGIRYVDPEKQRHWLEPNKSIFKQMKTHPPY” here?
A: failed

Q: For “MGHHHHHHSHMGWDLTVKMLAGNEFQVSLSSSMSVSELKAQITQKIGVHAFQQRLAVHPSGVALQDRVPLASQGLGPGSTVLLVVDKSDEPLS”, which protein production is on record?
A: failed

Q: For “MGHHHHHHSHMLPVELVRHDVKKTDETSQVELMLQVDPDLFWFNGHFTGQPLLPGVAQLDWVMHYATTVLAQGWTFLSIENIKFQQPILPGKTLRLVLIWHAGKQSLTFSYSILEGDTERTASSGKIKLTPIMEDNPCQ”, which protein production is on record?
A: not failed

Q: With “MGHHHHHHSHMPQFSPSYSFPVQIYYEDTDFSGVVYHPNFLKYFERAREHVIGAEQLRNLWQQQQLGFAVYRSDMLCHEGVEFADIIDIRTKFYFESKYRTVWHQEIWRPNGKKPAVTATIEMVCMNQARQLAPMPAELITQLSLGM” as the sequence, how does the protein production read?
A: not failed

Q: For “MGHHHHHHSHMSNAEDIRDLVVTFLEGLRKRSKYVVALQDNPNPAGEESGFLSFAKGDLIILDHDTGEQVMNSGWANGINERTKQRGDFPTDCVYVMPTVTMPPREIVA”, which protein production is on record?
A: failed

Q: For “MGHHHHHHSHMSPFLRIGLSNFDCGSCQSCQGEAVNPYCAVLVKEYVESENGQMYIQKKPTMYPPWDSTFDAHINKGRVMQIIVKGKNVDLISETTVELYSLAERCRKNNGKTEIWLELKPQGRMLMNARYFLEMSDTK”, which protein production is on record?
A: not failed

Q: For “MGHHHHHHSHMTCGAWEMKERLGTGGFGNVIRWHNQETGEQIAIKQCRQELSPRNRERWCLEIQIMRRLTHPNVVAARDVPEGMQNLAPNDLPLLAMEYCQGGDLRKYLNQFENCCGLREGAILTLLSDIASALRYLHENRIIHRD”, which protein production is on record?
A: failed

Q: For “MGHHHHHHSHNQEHQLGNNTLSSHLQIDKMTDNKTGEVLISENVVASIQPAEGSFEGDLKVPRMEEKEALVPIQKATDSFHTELHPRVAFWIIKLPRRRSHQDALE”, which protein production is on record?
A: failed

Q: For “MGHHHHHHSHSGNIRLETAAETQAFAEELGRHLEAGDVIILDGPLGAGKTTFTQGLARGLNVKGRVTSPTFVIAREHKSLSGGPSLVHVDAYRLIDDAAGATDPIGALDSLDLETELEDAVVVAEWGGGLVEQITDSYLLITFDRT”, which protein production is on record?
A: not failed

Q: Which protein production does the source give for “MGHHHHHHSHSLDSQKGQLVRGKVCEYSTDGAYIDIGGKAPAFLPKREAALHAVLDLEAHLPKDEELEFLVIRDQNEDGQVTVSLRALALEQAWTRVAELQEG” here?
A: not failed

Q: With “MGHHKAMPYADVAAFIIELRKREAVAATALEFTILTAARSGETLGAKWHEIDWKDKIWTVPAERMKAAREHRVPLSSRTITILKKLAEFGSDENSFVFPGQKPGKPLSVMAMDMVLRRMEVDVTVHGFRSSFRDWCGEVSNFPRDVAEAALAHLEHHHHHH” as the sequence, how does the protein production read?
A: not failed

Q: For “MGIFETMSQVRRLPQALAAAVATPPALAGSGTLRGLIGLDDSLGEAVTTRAEALTIPAVLRARNLLSTTVARTPLVCDGTLPPFVPVAAPPGAATMQTPFHRMLATADDLLFNGVACWALDRDESGTCIGAIHIPLDTWQIEENTVRVNGKAVDPMEVCIFVGIHGGLLTHASETFTDARNLVRAAARVAQNPAALIELRQTNNAQLSPDDVDRIINGYVAARRGRNSGVGFSSSGLEVHEHEMAKENLLIEGRNAAAVDVARAMNVPAAFIDATVGGTSLSYQNAASRMIELVTFGVEPLMSAIEARLNQPDMHADHLANPLKFDPAALLDAIPTTPTIGAQPHGENS”, which protein production is on record?
A: not failed

Q: With “MGIHKPKFYAVRAGRDKGVFSSWEECRKAIYGFSGAVYRSFPTLEEAQAWFKGETLSDPLKAEDDSLRDDRTEYDVYTDGSYVNGQYAWAYAFVKDGKVHYEDADVGKNPAAATMRNVAGEIAAALYAVKKASQLGVKIRILHDYAGIAFWATGEWKAKNEFTQAYAKLMNQYRGIYSFEKVKAHSGNEFNDYVDMKAKSALGIRDLEHHHHHH” as the sequence, how does the protein production read?
A: failed
